# Reference: paper PMC8041770 (2021)
# B1: yeast-displayed wild-type human LIFR CBM I–Ig-like domains (Gln45 to Gln337) [human] / recombinant human LIF, histidine-tagged (hLIF-His) [human] (parent complex)
# chain 1: QKKGAPHDLKCVTNNLQVWNCSWKAPSGTGRGTDYEVCIENRSRSCYQLEKTSIKIPALSHGDYEITINSLHDFGSSTSKFTLNEQNVSLIPDTPEILNLSADFSTSTLYLKWNDRGSVFPHRSNVIWEIKVLRKESMELVKLVTHNTTLNGKDTLHHWSWASDMPLECAIHFVEIRCYIDNLHFSGLEEWSDWSPVKNISWIPDSQTKVFPQDKVILVGSDITFCCVSQEKVLSALIGHTNCPLIHLDGENVAIKIRNISVSASSGTNVVFTTEDNIFGTVIFAGYPPDTPQ
# chain 2: not shown
# Variants of: B1
# Assay: flow cytometry of yeast-displayed LIFR variants; parent: 1; read off a plot
row,Variant,ratio to parent
1,"chain 1 I217V, chain 1 L218P, chain 1 N242D, chain 1 V262A, chain 1 T273I, chain 1 N277D",~6
2,"chain 1 I217V, chain 1 L218P, chain 1 H240R, chain 1 N242D, chain 1 I257V, chain 1 I260V, chain 1 V262A, chain 1 T273I, chain 1 N277D",~13
3,"chain 1 I217V, chain 1 L218P, chain 1 N242D, chain 1 I257V, chain 1 I260V, chain 1 V262A, chain 1 T273I, chain 1 N277D",~12

# Further lines, results first:
row,ratio to parent,Variant
1,~12,"chain 1 L218P, chain 1 H240R, chain 1 I257V, chain 1 V262A, chain 1 T273I, chain 1 N277D"
2,~15,"chain 1 L218P, chain 1 H240R, chain 1 I257V, chain 1 I260V, chain 1 V262A, chain 1 T273I, chain 1 N277D"
3,~6,"chain 1 L218P, chain 1 N242D, chain 1 I257V, chain 1 N277D"
4,~13,"chain 1 L218P, chain 1 H240R, chain 1 N242D, chain 1 I257V, chain 1 I260V, chain 1 V262A, chain 1 T273I, chain 1 N277D"
